{"source": "patent US20070037246A1", "about": "(LIFESENSORS, published 2007)", "binders": {"B1": {"name": "6xHis tagged NTHS (other)", "chain": "MGHHHHHHGSDSEVNQEAKPEVKPEVKPETHINLKVSDGSSEIFFKIKKTTPLRRLMEAFAK", "notes": "Purified from E. coli and used in solution in the reconstitution and cleavage experiments; also called 6xHis-NTHS"}}, "molecular_target": "6xHis-CTHS-GFP fusion protein (yeast (SUMO/Smt3 part))", "experiment": "mixing of purified proteins in solution, complex shown by Ulp1 cleavage (FIG. 7A)", "experimental": "FIG. 7A depicts the experimental results obtained when combining NTHS and CTHS-GFP in solution, resulting in assembly and formation of a cleavable complex. 6xHis-CTHS-GFP fusion protein purified from E. coli was incubated with SUMO hydrolase Ulp1 and 6xHis-NTHS (lanes […]), with 6xHis-NTHS (lanes 1-3) or Ulp1 (lanes 7-9). Release of free GFP can be observed only when all the components are present in the reaction mix. […] Furthermore, purification tags such as, but not limited to 6xHis, GST, MBP, a sequence facilitating covalent coupling to solid support such as Cys residue, may be attached to either the amino- and/or carboxy-termini of NTHS.", "data": [{"binder": "B1", "values": [{"measurement": "binding result", "value": "binds"}]}]}
